In patent EP2966448B1, “METHOD FOR THE PREDICTION OR PROGNOSIS OF THE RESPONSE OF A HUMAN SUBJECT SUFFERING FROM CANCER TO TREATMENT WITH AN ANTAGONIST OF THE NK1 RECEPTOR” (priority 2013, dated 2014):

Biological target: NK1 receptor (human) (UniProt P25103)
Test: cell-based or functional assay

Chain of NK1 receptor (human) (P25103 87-407): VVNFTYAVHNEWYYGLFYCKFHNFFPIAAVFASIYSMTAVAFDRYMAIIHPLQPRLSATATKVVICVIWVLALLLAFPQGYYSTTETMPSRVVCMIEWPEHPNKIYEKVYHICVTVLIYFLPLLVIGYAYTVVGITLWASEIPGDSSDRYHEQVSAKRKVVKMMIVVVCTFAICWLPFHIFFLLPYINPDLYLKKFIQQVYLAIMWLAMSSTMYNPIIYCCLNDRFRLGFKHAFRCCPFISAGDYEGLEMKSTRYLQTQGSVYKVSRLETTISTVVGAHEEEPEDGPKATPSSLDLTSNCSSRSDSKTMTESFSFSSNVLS

anti-NK1 antibody (S8305, Sigma-Aldrich)
27%: Percentage of inhibition of cell cultures; Carcinoma of the uterine cervix (Squamous cell carcinoma); cases without amplification of the gene that encodes for the NK1 receptor | Percentage of inhibition of cell cultures; Prostate carcinoma; low expression of the truncated form of NK1 receptor (Group A) | Percentage of inhibition of cell cultures; Renal cell carcinoma (clear cell renal cell carcinoma); cases without amplification of the gene that encodes for the NK1 receptor | Percentage of inhibition of cell cultures; Thyroid carcinoma (papillary carcinoma); cases without amplification of the gene that encodes for the NK1 receptor
97%: Percentage of inhibition of cell cultures; Lung carcinoma (non small cell lung carcinoma); cases with amplification of the gene that encodes for the NK1 receptor | Percentage of inhibition of cell cultures; Melanoma (Nodular Melanoma); cases with amplification of the gene that encodes for the NK1 receptor | Percentage of inhibition of cell cultures; Renal cell carcinoma (clear cell renal cell carcinoma); cases with amplification of the gene that encodes for the NK1 receptor
96%: Percentage of inhibition of cell cultures; Breast carcinoma (ductal adenocarcinoma); cases with amplification of the gene that encodes for the NK1 receptor | Percentage of inhibition of cell cultures; Burkitt Lymphoma; cases with amplification of the gene that encodes for the NK1 receptor | Percentage of inhibition of cell cultures; Burkitt Lymphoma; high expression of the truncated form of NK1 receptor (Group B) | Percentage of inhibition of cell cultures; Colon carcinoma (Adenocarcinoma); cases with amplification of the gene that encodes for the NK1 receptor | Percentage of inhibition of cell cultures; Endometrium carcinoma; cases with amplification of the gene that encodes for the NK1 receptor | Percentage of inhibition of cell cultures; Gastric carcinoma (Adenocarcinoma); high expression of the truncated form of NK1 receptor (Group B) | Percentage of inhibition of cell cultures; Glioma (astrocytoma); high expression of the truncated form of NK1 receptor (Group B) | Percentage of inhibition of cell cultures; Lung carcinoma (small cell lung carcinoma); high expression of the truncated form of NK1 receptor (Group B) | Percentage of inhibition of cell cultures; Melanoma (Nodular Melanoma); high expression of the truncated form of NK1 receptor (Group B) | Percentage of inhibition of cell cultures; Pancreatic carcinoma (Adenocarcinoma); cases with amplification of the gene that encodes for the NK1 receptor | Percentage of inhibition of cell cultures; Thyroid carcinoma (papillary carcinoma); cases with amplification of the gene that encodes for the NK1 receptor | Percentage of inhibition of cell cultures; Undifferentiated Pleomorphic Sarcoma (malignant fibrous histiocytoma grade 3); cases with amplification of the gene that encodes for the NK1 receptor | Percentage of inhibition of cell cultures; Urinary bladder carcinoma (transitional cell carcinoma); high expression of the truncated form of NK1 receptor (Group B)
24%: Percentage of inhibition of cell cultures; Breast carcinoma (ductal adenocarcinoma); low expression of the truncated form of NK1 receptor (Group A) | Percentage of inhibition of cell cultures; Carcinoma of the uterine cervix (Squamous cell carcinoma); low expression of the truncated form of NK1 receptor (Group A) | Percentage of inhibition of cell cultures; Colon carcinoma (Adenocarcinoma); cases without amplification of the gene that encodes for the NK1 receptor | Percentage of inhibition of cell cultures; Colon carcinoma (Adenocarcinoma); low expression of the truncated form of NK1 receptor (Group A) | Percentage of inhibition of cell cultures; Glioma (astrocytoma); low expression of the truncated form of NK1 receptor (Group A) | Percentage of inhibition of cell cultures; Non Hodgkin Lymphoma B (diffuse B cell lymphoma); low expression of the truncated form of NK1 receptor (Group A) | Percentage of inhibition of cell cultures; Non Hodgkin Lymphoma T (diffuse T cell lymphoma); cases without amplification of the gene that encodes for the NK1 receptor | Percentage of inhibition of cell cultures; Ovarian carcinoma (Adenocarcinoma); cases without amplification of the gene that encodes for the NK1 receptor | Percentage of inhibition of cell cultures; Renal cell carcinoma (clear cell renal cell carcinoma); low expression of the truncated form of NK1 receptor (Group A) | Percentage of inhibition of cell cultures; Thyroid carcinoma (follicular carcinoma); low expression of the truncated form of NK1 receptor (Group A) | Percentage of inhibition of cell cultures; Urinary bladder carcinoma (transitional cell carcinoma); cases without amplification of the gene that encodes for the NK1 receptor
95%: Percentage of inhibition of cell cultures; Carcinoma of the uterine cervix (Squamous cell carcinoma); high expression of the truncated form of NK1 receptor (Group B) | Percentage of inhibition of cell cultures; Gastric carcinoma (Adenocarcinoma); cases with amplification of the gene that encodes for the NK1 receptor | Percentage of inhibition of cell cultures; Glioma (astrocytoma); cases with amplification of the gene that encodes for the NK1 receptor | Percentage of inhibition of cell cultures; Lung carcinoma (non small cell lung carcinoma); high expression of the truncated form of NK1 receptor (Group B) | Percentage of inhibition of cell cultures; Lung carcinoma (small cell lung carcinoma); cases with amplification of the gene that encodes for the NK1 receptor | Percentage of inhibition of cell cultures; Non Hodgkin Lymphoma B (diffuse B cell lymphoma); high expression of the truncated form of NK1 receptor (Group B) | Percentage of inhibition of cell cultures; Non Hodgkin Lymphoma T (diffuse T cell lymphoma); cases with amplification of the gene that encodes for the NK1 receptor | Percentage of inhibition of cell cultures; Non Hodgkin Lymphoma T (diffuse T cell lymphoma); high expression of the truncated form of NK1 receptor (Group B) | Percentage of inhibition of cell cultures; Ovarian carcinoma (Adenocarcinoma); cases with amplification of the gene that encodes for the NK1 receptor | Percentage of inhibition of cell cultures; Ovarian carcinoma (Adenocarcinoma); high expression of the truncated form of NK1 receptor (Group B) | Percentage of inhibition of cell cultures; Pancreatic carcinoma (Adenocarcinoma); high expression of the truncated form of NK1 receptor (Group B) | Percentage of inhibition of cell cultures; Prostate carcinoma; cases with amplification of the gene that encodes for the NK1 receptor | Percentage of inhibition of cell cultures; Prostate carcinoma; high expression of the truncated form of NK1 receptor (Group B) | Percentage of inhibition of cell cultures; Thyroid carcinoma (follicular carcinoma); cases with amplification of the gene that encodes for the NK1 receptor | Percentage of inhibition of cell cultures; Thyroid carcinoma (papillary carcinoma); high expression of the truncated form of NK1 receptor (Group B) | Percentage of inhibition of cell cultures; Undifferentiated Pleomorphic Sarcoma (malignant fibrous histiocytoma grade 3); high expression of the truncated form of NK1 receptor (Group B)
94%: Percentage of inhibition of cell cultures; Breast carcinoma (ductal adenocarcinoma); high expression of the truncated form of NK1 receptor (Group B) | Percentage of inhibition of cell cultures; Carcinoma of the uterine cervix (Squamous cell carcinoma); cases with amplification of the gene that encodes for the NK1 receptor | Percentage of inhibition of cell cultures; Colon carcinoma (Adenocarcinoma); high expression of the truncated form of NK1 receptor (Group B) | Percentage of inhibition of cell cultures; Endometrium carcinoma; high expression of the truncated form of NK1 receptor (Group B) | Percentage of inhibition of cell cultures; Non Hodgkin Lymphoma B (diffuse B cell lymphoma); cases with amplification of the gene that encodes for the NK1 receptor | Percentage of inhibition of cell cultures; Thyroid carcinoma (follicular carcinoma); high expression of the truncated form of NK1 receptor (Group B) | Percentage of inhibition of cell cultures; Urinary bladder carcinoma (transitional cell carcinoma); cases with amplification of the gene that encodes for the NK1 receptor
23%: Percentage of inhibition of cell cultures; Pancreatic carcinoma (Adenocarcinoma); low expression of the truncated form of NK1 receptor (Group A)
28%: Percentage of inhibition of cell cultures; Endometrium carcinoma; cases without amplification of the gene that encodes for the NK1 receptor
22%: Percentage of inhibition of cell cultures; Gastric carcinoma (Adenocarcinoma); low expression of the truncated form of NK1 receptor (Group A)
26%: Percentage of inhibition of cell cultures; Breast carcinoma (ductal adenocarcinoma); cases without amplification of the gene that encodes for the NK1 receptor | Percentage of inhibition of cell cultures; Burkitt Lymphoma; low expression of the truncated form of NK1 receptor (Group A) | Percentage of inhibition of cell cultures; Endometrium carcinoma; low expression of the truncated form of NK1 receptor (Group A) | Percentage of inhibition of cell cultures; Lung carcinoma (non small cell lung carcinoma); low expression of the truncated form of NK1 receptor (Group A) | Percentage of inhibition of cell cultures; Lung carcinoma (small cell lung carcinoma); cases without amplification of the gene that encodes for the NK1 receptor | Percentage of inhibition of cell cultures; Melanoma (Nodular Melanoma); cases without amplification of the gene that encodes for the NK1 receptor | Percentage of inhibition of cell cultures; Melanoma (Nodular Melanoma); low expression of the truncated form of NK1 receptor (Group A) | Percentage of inhibition of cell cultures; Non Hodgkin Lymphoma B (diffuse B cell lymphoma); cases without amplification of the gene that encodes for the NK1 receptor | Percentage of inhibition of cell cultures; Thyroid carcinoma (follicular carcinoma); cases without amplification of the gene that encodes for the NK1 receptor | Percentage of inhibition of cell cultures; Urinary bladder carcinoma (transitional cell carcinoma); low expression of the truncated form of NK1 receptor (Group A)
93%: Percentage of inhibition of cell cultures; Renal cell carcinoma (clear cell renal cell carcinoma); high expression of the truncated form of NK1 receptor (Group B)
25%: Percentage of inhibition of cell cultures; Burkitt Lymphoma; cases without amplification of the gene that encodes for the NK1 receptor | Percentage of inhibition of cell cultures; Gastric carcinoma (Adenocarcinoma); cases without amplification of the gene that encodes for the NK1 receptor | Percentage of inhibition of cell cultures; Glioma (astrocytoma); cases without amplification of the gene that encodes for the NK1 receptor | Percentage of inhibition of cell cultures; Lung carcinoma (non small cell lung carcinoma); cases without amplification of the gene that encodes for the NK1 receptor | Percentage of inhibition of cell cultures; Lung carcinoma (small cell lung carcinoma); low expression of the truncated form of NK1 receptor (Group A) | Percentage of inhibition of cell cultures; Non Hodgkin Lymphoma T (diffuse T cell lymphoma); low expression of the truncated form of NK1 receptor (Group A) | Percentage of inhibition of cell cultures; Ovarian carcinoma (Adenocarcinoma); low expression of the truncated form of NK1 receptor (Group A) | Percentage of inhibition of cell cultures; Pancreatic carcinoma (Adenocarcinoma); cases without amplification of the gene that encodes for the NK1 receptor | Percentage of inhibition of cell cultures; Prostate carcinoma; cases without amplification of the gene that encodes for the NK1 receptor | Percentage of inhibition of cell cultures; Thyroid carcinoma (papillary carcinoma); low expression of the truncated form of NK1 receptor (Group A) | Percentage of inhibition of cell cultures; Undifferentiated Pleomorphic Sarcoma (malignant fibrous histiocytoma grade 3); cases without amplification of the gene that encodes for the NK1 receptor | Percentage of inhibition of cell cultures; Undifferentiated Pleomorphic Sarcoma (malignant fibrous histiocytoma grade 3); low expression of the truncated form of NK1 receptor (Group A)
